Measurements published in the supplement of paper PMC9170038.

Test system: K4 kissing-loop RNA reporter
Assay: apparent KD of K4 kissing-loop reporter; higher = weaker reporter binding
Details: Eterna round: R107
Method: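 RNA-MaP round R107: designed RNA switches with theophylline, tryptophan, arginine or FMN aptamers are transcribed on-chip within common flanks. They are titrated with a labelled K4 kissing-loop RNA reporter in RNA-MaP buffer (100 mM Tris pH 7.5, 80 mM KCl, 4 mM MgCl2), without ligand or with the indicated ligand. Median apparent KD per design.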

[1] = input ligand: theophylline 20 uM
[2] = input ligand: tryptophan 2.4 mM
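Further: bound reporter read as fluorescence of individual clusters on recovered sequencing chips by microscopy, with normalized cluster intensities fitted with a binding model.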

| Sequence | apparent KD of K4 kissing-loop reporter (input ligand: FMN 200 uM) [nM] | apparent KD of K4 kissing-loop reporter (input ligand: arginine 13.2 mM) [nM] | apparent KD of K4 kissing-loop reporter (input ligand: none) [nM] | apparent KD of K4 kissing-loop reporter [1] [nM] | apparent KD of K4 kissing-loop reporter [2] [nM] |
| --- | --- | --- | --- | --- | --- |
| CUUAUGGAGUGUCGUACCGGACACUGGGAAGGAGCGCAAUUCUUUGCAGGUAGGUCGCCCAGUGAUGUUGGGUGGCGCUGUCGAA [Xebeor] | 191 | 173 | 181 | 266 | 169 |
| CUUGGAAGGACGGCCGCCACUCGACAGUGAUGUUGUCCGAGUUGGUAACGCAGUGAUGUUGUGUCGAGGACCGGGUCCUAGGAAU [Exclusion Tryptophan B GF 26] | 199 | 149 | 185 | 174 | 147 |
| GAAAGAAAGUAUGAUACCAGACACCCGAGUGAUGUUCGGAGCAGUGUGUUGUUCUUUUAAGUCCCUUGGCAGCAUAAAAGAAAAG [whbob_SS_Theo_B_sa85] | 116 | 107 | 127 | 114 | 87.1 |
| GAACGAGUGAUGUUCGUUAUUAUGCAUUCCGAGGAUAUGGGAUUAGCCAGAAGGCGGAAUCAAUCUUCGAGUGAUGUUCGAAGAU [Same State FMN A GF 11] | 129 | 138 | 142 | 119 | 136 |
| GACAUAUUCCAGGAUACCAGUGAUCCGCCGCAGCCGAAGACUAGUGAUGUUAGUUUCUGUCACCCUUGGCAGCCUCGAGUCUAAU [theeternabot_sameState_KL_Theo_B_15] | 420 | 487 | 498 | 572 | 434 |
| GACCGGCCGACGAGUGAUGUUCGAUGGGAAGGAGCGCGAAGAAAUGCAGGUAGGUCGCCCUAAGUAAUUGAAACGGCCGGAUUAU [2.)] | 137 | 143 | 128 | 212 | 102 |
| GAGAGCCCUGUAGGAUAUGAGUCUAGUGAUGUUAGGCGGUCCAUGCGCGUGGCGCGUUAUGCCCUUUUAGAAGGACAGGGCUCUC [#2 Exclusion - FMN B Attempt #20 (HarryS)] | 105 | 67.2 | 80.9 | 80.1 | 80 |
| GAGAUAGAGGCGGCCGCCACUAGUGAUGUUAGUGAUGUUAGAUAGAGAAUAGAACAGAGAUAGGAUAGGACCGGGCCAGAUAGAG [Tryptophan B Exclusion; Euphoria Solution] | 69.4 | 60.8 | 57.4 | 52.1 | 68.6 |
| GAGCCAGAGGUUGCUGCGGGUUCCAGAGAUACCAGCCGUAUUGAAGGCCCUUGGCAGCUCGAGUGAUGUUCGAGCCGCCUCUGAC [Isquleorve] | 119 | 104 | 97.2 | 108 | 110 |
| GAUACCACGUUAGAUACCAGCUUCGUUGACUUGGGUAGUAGUCGAACUUCAGUGAUGUUGAGCCCUUGGCAGCUACAGAUGUGCG [theeternabot_exclusion_KL_Theo_B_38] | 657 | 311 | 654 | 588 | 624 |
| GAUAGUUAGAGAGAUACCAGCGAUACCUAGAUGGAAAGUGAUGUUCGCCAUCAAUUGCACCGCCCUUGGCAGCUCUCUCUUUGCU [theeternabot_exclusion_KL_Theo_B_37] | 995 | 763 | 1170 | 974 | 959 |
| GAUAUAUAGACGGCCGCCACUUAUAAAUUUCAGUGAUGUUGAAAUGUUAAAUAACGAACACAAUAGAGGACCGGGUCAAAUAUCG [Same State Tryptophan B GF 2] | 162 | 161 | 190 | 187 | 171 |
| GAUUGAGUGAUGUUCAAUUAGUAUCUAGAUACCAGAAUGUCUACCUUCCCUUGGCAGCUACUGACGGUGAUCAUUUCGCGCGCAG [theeternabot_sameState_KL_Theo_A_19] | 235 | 222 | 244 | 253 | 195 |
| GCAAAGUGUCAUAUUAUCUAGCAGCUGCGAAAGGAUAUGAGAGUGCUCAGAAGGUUCUUGGCGGAGUGAUGUUCCGCGUAAAUGG [theeternabot_exclusion_KL_FMN_A_22] | 84.2 | 93.8 | 93.9 | 103 | 81.4 |
| GCAGACCGCAGUGAUGUUGCGAAAUCGGAAGGAGCGCGUGAAAACGCAGGUAGGUCGCCGACACAGGGAUUAUAACCCUGUUUGC [Arginine A K4 16] | 173 | 196 | 207 | 176 | 154 |
| GCAGCUCGGGAGUGAUGUUCUCGUAGAGGAAAGGAUAUGUACUUAGACAGAAGGUUCGCAAUUUGCGGUCUUAAGAUAGAAUAAC [theeternabot_sameState_KL_FMN_A_40] | 177 | 126 | 207 | 224 | 152 |
| GCAGGAUGAGGAGGAGGAUGAAUUACUGAAGGAGCGCAUAUUUUUGCAGGUAGGUCGCGGUAAAGAAGUAUAGUGAUGUUAUAUA [SSArgA.K] | 333 | 255 | 267 | 568 | 456 |
| GCAGUGAUGUUGCGGAUGUACAGUGGCGUGCGAGGACCGGUACGGCCGCCACUCGUACAGACCAAGCUAAUACAUCGAUAGGUGA [whbob_SS_Tryp_A_m3] | 344 | 247 | 353 | 287 | 218 |
| GCAGUGAUGUUGCUGAUGUGCAGUGGUAGUCGAGGACCGGUACGGCCGCCACUCGGUGAGAAUUUGUUAAUACAUCGAUAAGUGA [XVI] | 968 | 558 | 788 | 509 | 707 |
| GCAUCCUAGUCGGCCGCCACUAACAUGAGUGAUGUUCAUGUACGUCAGUGAUGUUGACGUAGUUAUAGGACCGGGACUAGGAUGC [KL-SSTryp-B7 Brourdwalk3] | 146 | 119 | 137 | 118 | 120 |
| GCCAGAGCGCGAAGGAGCGCCGUGACAGGUUGCUGCCGUGGGCAGUGAUGUUGCUCAAUCUGGCAGGUAGGUCGCGUGCUCUGGC | 269 | 219 | 273 | 226 | 248 |

| Sequence | apparent KD of K4 kissing-loop reporter (input ligand: FMN 200 uM) [nM] | apparent KD of K4 kissing-loop reporter (input ligand: arginine 13.2 mM) [nM] | apparent KD of K4 kissing-loop reporter (input ligand: none) [nM] | apparent KD of K4 kissing-loop reporter [1] [nM] | apparent KD of K4 kissing-loop reporter [2] [nM] |
| --- | --- | --- | --- | --- | --- |
| GCCCUCUUAACGGCCGCCACUAUAUUUAUGAUCUCUAGUAAGUGAUGUUUACUCCGGCUUAUAGGUAGGACCGGGUUAUUAUCUU [theeternabot_sameState_KL_Trp_B_39] | 229 | 336 | 257 | 302 | 181 |
| GCCGUACGCAUGGAUACCAGCACAGGCCGAAGUGAUGUUUCGUGCGUAUAUUUGUGCUACUGCCCUUGGCAGCCAUGCGUACGGC | 75.8 | 66.9 | 73.9 | 66.5 | 75.2 |
| GCCGUACGCAUGGAUACCAGCUGCGAAGUGAUGUUUCGGGCGAUCAAAGGAUCGCCCUACAGCCCUUGGCAGCCAUGCGUACGGC | 215 | 117 | 173 | 125 | 118 |
| GCCGUAGAUGGAAGGAGCGUGGUAGACUGUUGAAGUGAUGUUUCAACUCAUUAAGCCCAACCACAGGUAGGUCGCCAUCUACGGC | 133 | 107 | 107 | 112 | 120 |
| GCCGUAGAUUGAAGGAGCGGGCCGUAGUGAUGUUACGCCAAAUUAUCCUUUCUUGAGGUGGUCCAGGUAGGUCGCAAUCUACGGC | 168 | 144 | 148 | 109 | 118 |
| GCCGUAGAUUGAAGGAGCGGUGAAUGCAGGUGAGUCCUUUAGAUGUUUAGUGAUGUUAAACACCAGGUAGGUCGCAAUCUACGGC | 235 | 178 | 203 | 200 | 192 |
| GCCUACGUAGCAGGAUAUAGGUAAGUGAGUGAUGUUCAAGAGUUCUGGAGUGAUGUUCCAAUCUGACUAGAAGGGCUACGUAGGC | 58.4 | 45.2 | 79.3 | 57.3 | 54.1 |
| GCGCGCGGCGGAGGAUAUAGCAGGUGAUCCAAGAAAGUGAGUGAUGUUUAUGGAGAUGAUGAUAUGUUAGAAGGCCGCCGCGCGC [abcdefghijklmnopqrstu] | 803 | 448 | 626 | 847 | 474 |
| GCGCGGCUCAGUGAUGUUGAGCCUCGGAGACGAGGACCGGUACGGCCGCCACUCGUCCGCGCAGCUGAGGCAAAAGCCUCGGCAA [Omei KL Tryp A SS B v3] | 201 | 195 | 189 | 186 | 141 |
| GCGCGUCAUGUCAGCGGUGACACUGUCGAUACCAGUGCCGCAAGGCGCCCUUGGCAGCGACGUGCUGGAGUGAUGUUCCAGCGUU [#2 Exclusion - Theophylline A Attempt #29 (HarryS)] | 156 | 122 | 161 | 152 | 124 |
| GCGCGUCAUGUCAGCGGUGACUACGUCGAUACCAGCAGGGAAACCUGCCCUUGGCAGCGACGCGCUGGAGUGAUGUUCCGACGGC [#2 Exclusion - Theophylline A Attempt #7 (HarryS)] | 184 | 176 | 180 | 318 | 159 |
| GCGCGUCAUGUCAGCGGUGACUAUGUCGAUACCAGCGCCGCAAGGCGCCCUUGGCAGCGACGCGCUGGAGUGAUGUUCCGACGGC [#2 Exclusion - Theophylline A Attempt #9 (HarryS)] | 144 | 153 | 148 | 159 | 129 |
| GCGGCCCAGCCGGAUACCAGUGAGCCGCUGGGAACCGCGGGCCCAGAGUGAUGUUCGGGACACCCUUGGCAGCCGCCUGGGUCGC [#2 Same State - Theophylline B Attempt #20 (HarryS)] | 486 | 293 | 643 | 301 | 491 |
| GCGGGCCAGACGGCCGCCACUCCGGGCAGUGAUGUUGCGAAACUUCUACUAGAGUGAUGUUCUACGAGGACCGGGUCGGAACGCG [Exclusion Tryptophan B Gf 13] | 789 | 703 | 951 | 1000 | 578 |
| GCGUAGGAAGAAGGAUAUCACAGGAUGCCACGUUAGUGAUGUUAAUUUGGUUCAGCGCGAUUCUGAUGAGAAGGUCUUUUAUGAU [theeternabot_sameState_KL_FMN_B_47] | 220 | 300 | 295 | 205 | 210 |
| GCGUCACGUCGGGAUACCAGAGAAAUGGCAUUAGCCAAUGACGAGUGAUGUUCGUAGGCGCUCCCUUGGCAGCCCACCGGGAGGA [theeternabot_sameState_KL_Theo_B_21] | 351 | 218 | 311 | 340 | 278 |
| GGACAACUAUGUCCCAUACAAACAAGAGAUACCAGCCAUCAUAGAGGCCCUUGGCAGCUCAUAUAAUCCAGUGAUGUUGGAUUUC [Atgebeus] | 165 | 215 | 179 | 149 | 148 |
| GGACCUCAGUGAUGUUGAGGUAACGCUGAUACCAGUGACUUAAUUCGCCCUUGGCAGCAGUCCACCGAGGUAUCUGAUUAGGUCU [Default title] | 133 | 145 | 149 | 155 | 139 |
| GGAGGAGAAUAUGAUACCAGCAGAGAGAGAUACGAAGUAUAGUGAUGUUAUAUGAGAGAAUGCCCUUGGCAGCAUAAGACGCAGG [#08 K4 Theophylline B Same State] | 86 | 83.3 | 116 | 95 | 84.8 |
| GGAGUCCCGUUAGAUUGUGUAGAUACAAGACGAGGACCGGUACGGCCGCCACUCGCCAUCGUCCAGUGAUGUUGGGCGUCACGGG [theeternabot_sameState_KL_Trp_A_30] | 262 | 179 | 235 | 227 | 219 |
| GGAGUUACCUGGGAUACCAGUCGGAGUCCCAGAGCACAGAGUGAUGUUCUGGGAUGUUUCGGCCCUUGGCAGCUCUGGGACUCCC [#2 Exclusion - Theophylline B Attempt #13 (HarryS)] | 482 | 254 | 142 | 402 | 222 |
